{"source": "paper PMC8068247", "about": "“Innovative and Highly Sensitive Detection of Clostridium perfringens Enterotoxin Based on Receptor Interaction and Monoclonal Antibodies” (Toxins, 2021)", "molecules": {"B1": {"name": "GST human claudin-4 fusion protein (GST-ShCLDN4H8) (receptor)", "chain": "MASMGLQVMGIALAVLGWLAVMLCCALPMWRVTAFIGSNIVTSQTIWEGLWMNCVVQSTGQMQCKVYDSLLALPQDLQAARALVIISIIVAALGVLLSVVGGKCTNCLEDESAKAKTMIVAGVVFLLAGLMVIVPVSWTAHNIIQDFYNPLVASGQKREMGASLYVGWAASGLLLLGGGLLCCNCPPRTDKPYSAKYSAARSAAASNYV"}}, "key": {"[1]": {"target": "Clostridium perfringens enterotoxin (CPE) (Clostridium perfringens) (UniProt P01558)", "conditions": "cited from earlier work"}, "[2]": {"target": "Clostridium perfringens enterotoxin (CPE) (Clostridium perfringens) (UniProt P01558)", "conditions": "cited from earlier work", "remark": "listed apart in the source"}, "[3]": {"target": "T1, recombinant Clostridium perfringens enterotoxin (CPE) (aa 26–319, wild type) (Clostridium perfringens, UniProt P01558 26-319)", "T1 construct": "also called CPE 26–319; holo-CPE", "T1 sequence": "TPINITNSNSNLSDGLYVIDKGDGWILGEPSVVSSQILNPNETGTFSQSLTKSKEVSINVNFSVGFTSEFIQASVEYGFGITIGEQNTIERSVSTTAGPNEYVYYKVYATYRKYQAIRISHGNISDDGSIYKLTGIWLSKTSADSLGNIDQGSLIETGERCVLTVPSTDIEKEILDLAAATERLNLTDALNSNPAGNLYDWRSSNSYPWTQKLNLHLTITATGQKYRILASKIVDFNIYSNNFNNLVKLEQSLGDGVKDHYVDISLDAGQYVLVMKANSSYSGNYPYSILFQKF", "test": "SPR; […], multi-cycle, 120 s association, 1200 s dissociation; HBS-EP+ pH 7.4, 25 °C; Biacore T200; 1:1 Langmuir fit", "conditions": "both partners purified"}}, "note": "Like-named read-outs stand apart in the source and are kept apart here.", "data": [{"molecule": "claudin-4 (from UniProt O35054)", "values": [{"measurement": "Kd", "setting": "[1]", "value": 9, "unit": "nM"}]}, {"molecule": "claudin-4 (from UniProt O14493)", "values": [{"measurement": "Kd", "setting": "[2]", "value": 3.4, "unit": "nM"}]}, {"molecule": "B1", "values": [{"measurement": "Kd", "setting": "[3]", "value": 0.38, "unit": "nM"}, {"measurement": "koff", "setting": "[3]", "value": 0.00021, "unit": "s⁻¹"}, {"measurement": "kon", "setting": "[3]", "value": 560000, "unit": "M⁻¹ s⁻¹"}]}]}
